Source: article PMC8497992, “Structural and functional characterization explains loss of dNTPase activity of the cancer-specific R366C/H mutant SAMHD1 proteins” (The Journal of Biological Chemistry, 2021)

Molecular target: the molecule itself
Experiment: crystal structure; HD domain (113-626) H206R/D207N constructs, 4 mg/ml, with 4 mM dGTP; microbatch under oil; 100 mM succinic acid-phosphate-glycine buffer, 30% PEG1500; tetramer

Protein	stoichiometry N
SAMHD1 (113-626) H206R/D207N/R366C (domain or fragment, UniProt Q9Y3Z3 113-626, looked up, Crystallised with 4 mM dGTP; also called R366C (crystal construct); SAMHD1 HD/RN R366C) DTMKVINDPIHGHIELHPLLVRIIDTPQFQRLRYIKQLGGGYYVFPGASHNRFEHSLGVGYLAGCLVHALGEKQPELQISERDVLCVQIAGLCRNLGHGPFSHMFDGRFIPLARPEVKWTHEQGSVMMFEHLINSNGIKPVMEQYGLIPEEDICFIKEQIVGPLESPVEDSLWPYKGRPENKSFLYEIVSNKRNGIDVDKWDYFARDCHHLGIQNNFDYKRFIKFARVCEVDNELRICARDKEVGNLYDMFHTCNSLHRRAYQHKVGNIIDTMITDAFLKADDYIEITGAGGKKYRISTAIDDMEAYTKLTDNIFLEILYSTDPKLKDAREILKQIEYRNLFKYVGETQPTGQIKIKREDYESLPKEVASAKPKVLLDVKLKAEDFIVDVINMDYGMQEKNPIDHVSFYCKTAPNRAIRITKNQVSQLLPEKFAEQLIRVYCKKVDRKSLYAARQYFVQWCADRNFTKPQDGDVIAPLITPQKKEWNDSTSVQNPTRLREASKSRVQLFKDDPM	4
SAMHD1 (113-626) H206R/D207N/R366H (domain or fragment, UniProt Q9Y3Z3 113-626, looked up, Crystallised with 4 mM dGTP; also called R366H (crystal construct); SAMHD1 HD/RN R366H) DTMKVINDPIHGHIELHPLLVRIIDTPQFQRLRYIKQLGGGYYVFPGASHNRFEHSLGVGYLAGCLVHALGEKQPELQISERDVLCVQIAGLCRNLGHGPFSHMFDGRFIPLARPEVKWTHEQGSVMMFEHLINSNGIKPVMEQYGLIPEEDICFIKEQIVGPLESPVEDSLWPYKGRPENKSFLYEIVSNKRNGIDVDKWDYFARDCHHLGIQNNFDYKRFIKFARVCEVDNELRICARDKEVGNLYDMFHTHNSLHRRAYQHKVGNIIDTMITDAFLKADDYIEITGAGGKKYRISTAIDDMEAYTKLTDNIFLEILYSTDPKLKDAREILKQIEYRNLFKYVGETQPTGQIKIKREDYESLPKEVASAKPKVLLDVKLKAEDFIVDVINMDYGMQEKNPIDHVSFYCKTAPNRAIRITKNQVSQLLPEKFAEQLIRVYCKKVDRKSLYAARQYFVQWCADRNFTKPQDGDVIAPLITPQKKEWNDSTSVQNPTRLREASKSRVQLFKDDPM	4
